Earlier results, collected in PMC5713020.
Values joined by “and” are separate entries in the source; they are usually repeats but may differ in a detail not shown here. Equal entries are not always repeated. Values belong to the substance of their own block, whether it stands above or below them.

What was measured:
p63 DBD (Homo sapiens) = p63 DBD (Homo sapiens) (UniProt Q9H3D4); assay: AFS
p73 (Homo sapiens) = p73 (Homo sapiens) (UniProt O15350); assay: AFS
MDM4 (Homo sapiens) [1] = biological target: MDM4 (Homo sapiens) (UniProt O15151); assay: SPR (Langmuir isotherm)
MDM4 (Homo sapiens) [2] = biological target: MDM4 (Homo sapiens) (UniProt O15151); assay: SPR
p53 (Homo sapiens) = p53 (Homo sapiens) (UniProt P04637); assay: SPR
Chain of p53 (Homo sapiens) (P04637 whole entry): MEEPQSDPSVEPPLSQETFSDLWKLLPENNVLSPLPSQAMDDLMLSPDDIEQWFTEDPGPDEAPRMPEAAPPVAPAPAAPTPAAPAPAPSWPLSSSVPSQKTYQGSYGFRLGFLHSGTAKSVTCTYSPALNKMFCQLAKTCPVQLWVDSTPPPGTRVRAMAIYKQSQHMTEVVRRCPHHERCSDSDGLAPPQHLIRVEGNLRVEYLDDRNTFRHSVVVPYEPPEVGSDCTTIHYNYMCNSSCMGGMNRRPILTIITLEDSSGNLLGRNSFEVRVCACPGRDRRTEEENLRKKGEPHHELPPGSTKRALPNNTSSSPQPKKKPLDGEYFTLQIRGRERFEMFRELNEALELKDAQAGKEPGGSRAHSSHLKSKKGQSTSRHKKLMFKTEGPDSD

Chain of Azurin (P00282 21-148): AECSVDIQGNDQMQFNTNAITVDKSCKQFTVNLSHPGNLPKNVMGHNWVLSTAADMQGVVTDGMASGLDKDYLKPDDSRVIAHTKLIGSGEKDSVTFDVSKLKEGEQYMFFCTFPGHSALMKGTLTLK
Chain of MDM2 (Q00987 whole entry): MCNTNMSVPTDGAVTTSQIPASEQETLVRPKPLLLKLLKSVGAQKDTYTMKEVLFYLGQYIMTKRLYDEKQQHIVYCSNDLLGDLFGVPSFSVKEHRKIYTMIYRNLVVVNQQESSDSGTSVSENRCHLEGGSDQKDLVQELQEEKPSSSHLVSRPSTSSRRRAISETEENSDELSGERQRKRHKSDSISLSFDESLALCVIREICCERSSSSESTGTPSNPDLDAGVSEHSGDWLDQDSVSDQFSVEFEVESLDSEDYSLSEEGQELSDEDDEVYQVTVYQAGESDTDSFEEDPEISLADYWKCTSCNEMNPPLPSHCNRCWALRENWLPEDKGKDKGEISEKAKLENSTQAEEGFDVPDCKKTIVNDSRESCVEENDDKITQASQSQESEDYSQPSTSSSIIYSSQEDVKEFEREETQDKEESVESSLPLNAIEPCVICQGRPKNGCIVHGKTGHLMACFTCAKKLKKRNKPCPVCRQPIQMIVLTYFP
Chain of MDM4 (Homo sapiens) (O15151 whole entry): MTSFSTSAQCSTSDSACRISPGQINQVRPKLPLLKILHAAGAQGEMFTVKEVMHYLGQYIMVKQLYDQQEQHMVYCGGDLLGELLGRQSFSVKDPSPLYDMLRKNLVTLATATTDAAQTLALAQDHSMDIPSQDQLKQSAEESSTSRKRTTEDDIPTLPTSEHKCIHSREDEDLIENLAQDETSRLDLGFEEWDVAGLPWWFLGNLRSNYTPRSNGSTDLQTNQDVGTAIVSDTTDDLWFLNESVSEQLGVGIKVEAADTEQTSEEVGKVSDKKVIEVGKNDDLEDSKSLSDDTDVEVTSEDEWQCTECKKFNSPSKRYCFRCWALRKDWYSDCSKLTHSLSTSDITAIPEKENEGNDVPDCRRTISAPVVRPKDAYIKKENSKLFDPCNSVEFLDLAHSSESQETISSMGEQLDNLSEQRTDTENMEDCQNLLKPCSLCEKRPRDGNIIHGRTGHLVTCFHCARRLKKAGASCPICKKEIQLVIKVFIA
Chain of p28 p28 peptide (P00282 70-97): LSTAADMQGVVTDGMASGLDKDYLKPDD
Chain of p63 DBD (Homo sapiens) (Q9H3D4 166-362): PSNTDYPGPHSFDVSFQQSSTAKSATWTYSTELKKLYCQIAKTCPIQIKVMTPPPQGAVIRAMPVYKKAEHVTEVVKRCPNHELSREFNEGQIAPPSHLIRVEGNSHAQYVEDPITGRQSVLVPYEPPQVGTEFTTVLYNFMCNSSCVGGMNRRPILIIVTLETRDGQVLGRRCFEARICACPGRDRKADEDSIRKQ
Chain of p73 (Homo sapiens) (O15350 whole entry): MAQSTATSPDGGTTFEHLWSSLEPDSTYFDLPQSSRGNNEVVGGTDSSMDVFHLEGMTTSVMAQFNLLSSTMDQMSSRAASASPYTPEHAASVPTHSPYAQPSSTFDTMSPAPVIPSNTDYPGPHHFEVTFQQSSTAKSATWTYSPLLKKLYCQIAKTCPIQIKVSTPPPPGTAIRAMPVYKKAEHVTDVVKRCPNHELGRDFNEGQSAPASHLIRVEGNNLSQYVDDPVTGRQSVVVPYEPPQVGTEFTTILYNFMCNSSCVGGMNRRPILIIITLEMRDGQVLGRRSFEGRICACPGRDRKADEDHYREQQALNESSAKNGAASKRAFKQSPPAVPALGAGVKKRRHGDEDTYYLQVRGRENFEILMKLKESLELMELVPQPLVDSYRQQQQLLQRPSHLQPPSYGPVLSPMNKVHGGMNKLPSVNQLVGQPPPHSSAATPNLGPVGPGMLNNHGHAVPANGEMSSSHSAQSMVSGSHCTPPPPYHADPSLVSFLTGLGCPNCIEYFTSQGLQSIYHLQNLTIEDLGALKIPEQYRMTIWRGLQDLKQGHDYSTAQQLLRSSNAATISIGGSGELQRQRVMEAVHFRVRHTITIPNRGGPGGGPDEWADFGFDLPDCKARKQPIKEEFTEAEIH

Substance: p28 p28 peptide (from UniProt P00282)
Kd (p63 DBD (Homo sapiens)): 1000 nM
Kd (p73 (Homo sapiens)): 100 nM

Kd (MDM4 (Homo sapiens) [1]): 1000 nM
Kd (MDM4 (Homo sapiens) [2]): 390 nM
Substance: MDM2 (from UniProt Q00987)

Substance: Azurin (from UniProt P00282)
Kd (p53 (Homo sapiens)): 1300 nM and 1200 nM
